What was measured:
[1] = target: T1, N1 binding to cell surface expressed hJ1 (Homo sapiens, UniProt P78504); assay: Notch binding blocking assay (FACS): N1 EGF11-13 beads staining human J1-expressing cells; set-up: key: +: Complete blocking; X: No blocking
T1 construct: cell expressed full length human J1 (hJ1; HEK293 transfectants); expressed in transfected cells; host or cells: HEK293
Procedure, shortened: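 E. coli-expressed, refolded human N1 EGF11-13 (411-526), biotinylated on avidin-coated fluorescent beads, stained human J1-transfected HEK293 cells with hybridoma supernatant or purified antibody diluted in HBSS/10% FCS. Purified mAbs titrated in dilution series; bead binding read by flow cytometry.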

[2] = system: J1-induced Notch signalling; assay: Luciferase assay, LS174T RBPJ reporter stimulated with J1 protein; assay type: cell-based, human; details: humanised/chimeric mAbs 10 μg/ml, NE3-Fc; DBZ control
Description: FIG. 9. […] (A) The colorectal cancer cell line LS174T expressing luciferase under the control of Notch co-factor RBPJ was stimulated with mammalian cell-expressed soluble J1 proteins (NE3-Fc and NE12-Fc) or a control protein in the presence of J1 mAbs (10 μg/ml), and luciferase activity was measured. […] (C) Breast cancer MDA-MB-231 cells were cultured with J1 mAbs. The expression level of the Notch target gene HES1 was measured by qPCR using β2m as the control gene. In all experiments the γ-secretase inhibitor DBZ was used as a positive control for pan Notch inhibition and a control mAb (IgG2b or IgG1) or no treatment (NT) were negative controls.
FIG. 20. Inhibition of human Jagged 1/Notch signalling by humanised and de-immunised J1-mAbs in vitro. The colorectal cancer cell line LS174T expressing luciferase under the control of Notch co-factor RbPJ was stimulated with mammalian cell-expressed recombinant J1 protein (NE3-Fc protein, right bar for each treatment) or a control protein (left bar) in the presence of J1 mAbs (10 μg/ml), and luciferase activity was measured. The parental murine monoclonal antibody (Mo), Murine IgG1, DMSO and DBZ were used as controls.
Having established that the J1 mAbs were able to block the binding of the J1 ligand to its receptor N1 their effect on the activity of the Notch signalling pathway was investigated. The human colorectal cancer cell line LS174T, stably expressing a luciferase reporter gene under control of Notch co-factor RBPJ, was stimulated with two forms of immobilised J1 protein: N-terminus to EGF3 and N-terminus to EGF12. […] Importantly, the best two J1 mAbs (J1-65D and J1-183D) were also tested against other Notch ligands in order to verify ligand specificity.
Prior to experiment, clear bottom 96-well plates (CELLSTAR) wells were coated with either J1-ECD fragments (NE3-Fc and NE12-Fc), other Notch-ligands (J2 or DLL4; both from R&D) or control protein (mlgG2b) at the concentration of 5 μg/ml in 0.1% BSA-PBS (overnight incubation at 4° C.). LS174T colorectal cancer cells, expressing the luciferase gene under control of the Notch cofactor RbPJ, were then plated (4×10^4 cells/well) in the presence of different mAbs (10 μg/ml) or DBZ (100 nM). Luciferase activity was then quantified 24 hours later using the Bright-Glo Luciferase Assay System (Promega).

[3] = Soluble aggregates of transiently expressed antibodies; assay type: physicochemical; details: Protein A purified antibody
Source text: The protein yield of these antibodies, their levels of soluble aggregates and their binding affinity to the immunogen (J1-DE3) are illustrated in (Table 6).

MDA-MB-231 spheroids = assay: Spheroid assay (3-D growth), MDA-MB-231; assay type: cell-based, human; details: humanised variants 5 μg/ml
Source text: Similar findings were also reported for the Merck anti-N1 mAbs when tested on the LS-1034 cell line. As cell-cell contact is required to activate Notch signalling a spheroid-based 3-D growth model was used to test the ability of the J1 mAbs to block tumour growth. Furthermore, the 3-D model better mimics in vivo conditions including hypoxia and acidosis, allowing evaluation of the mAbs effect in a more realistic setting. Spheroids were generated from MDA-MB-231 breast cancer cells and the ability of different concentrations of the J1-65D mAb to inhibit their growth was evaluated.
Cells were harvested and resuspended in 2.5% Matrigel (BD)-complete DMEM medium. Cell suspension was plated on low-adherence 96-well plates (Corning) (200 μl/well) and spheroids, of approximately fixed cell number (5×10^3 cells for MDA-MB-231 and MDA-MB-468 cell lines; 2×10^3 for MCF7 cells) were then generated by spinning plates at 1800 rpm for 10 minutes. The following day, pictures of the spheroids were taken (day 1) and treatments were added (mAbs were used at 10 μg/ml [5 μg/ml for humanised antibodies] while DBZ was used at the concentration of 100 nM). In some experiments Paclitaxel (1 nM) and Doxorubicin (20 nM) were used in combination with J1-65D mAb treatment. Every 2 days pictures were taken and half of the medium was replaced with fresh one containing mAb/drug. At the end of the experiment, spheroids were either lysed for RNA extraction, were processed and paraffin-embedded for immunohistochemical analysis or were dissociated by pipetting and trypsinization into single cell suspensions for FACS analysis. Spheroid size was evaluated by image analysis using ImageJ software.

[4] = final antibody concentration 0.2 μg/ml
[5] = final antibody concentration 0.4 μg/ml
[6] = final antibody concentration 0.6 μg/ml
[7] = final antibody concentration 1.0 μg/ml

T1 sequence (P78504 34-1218): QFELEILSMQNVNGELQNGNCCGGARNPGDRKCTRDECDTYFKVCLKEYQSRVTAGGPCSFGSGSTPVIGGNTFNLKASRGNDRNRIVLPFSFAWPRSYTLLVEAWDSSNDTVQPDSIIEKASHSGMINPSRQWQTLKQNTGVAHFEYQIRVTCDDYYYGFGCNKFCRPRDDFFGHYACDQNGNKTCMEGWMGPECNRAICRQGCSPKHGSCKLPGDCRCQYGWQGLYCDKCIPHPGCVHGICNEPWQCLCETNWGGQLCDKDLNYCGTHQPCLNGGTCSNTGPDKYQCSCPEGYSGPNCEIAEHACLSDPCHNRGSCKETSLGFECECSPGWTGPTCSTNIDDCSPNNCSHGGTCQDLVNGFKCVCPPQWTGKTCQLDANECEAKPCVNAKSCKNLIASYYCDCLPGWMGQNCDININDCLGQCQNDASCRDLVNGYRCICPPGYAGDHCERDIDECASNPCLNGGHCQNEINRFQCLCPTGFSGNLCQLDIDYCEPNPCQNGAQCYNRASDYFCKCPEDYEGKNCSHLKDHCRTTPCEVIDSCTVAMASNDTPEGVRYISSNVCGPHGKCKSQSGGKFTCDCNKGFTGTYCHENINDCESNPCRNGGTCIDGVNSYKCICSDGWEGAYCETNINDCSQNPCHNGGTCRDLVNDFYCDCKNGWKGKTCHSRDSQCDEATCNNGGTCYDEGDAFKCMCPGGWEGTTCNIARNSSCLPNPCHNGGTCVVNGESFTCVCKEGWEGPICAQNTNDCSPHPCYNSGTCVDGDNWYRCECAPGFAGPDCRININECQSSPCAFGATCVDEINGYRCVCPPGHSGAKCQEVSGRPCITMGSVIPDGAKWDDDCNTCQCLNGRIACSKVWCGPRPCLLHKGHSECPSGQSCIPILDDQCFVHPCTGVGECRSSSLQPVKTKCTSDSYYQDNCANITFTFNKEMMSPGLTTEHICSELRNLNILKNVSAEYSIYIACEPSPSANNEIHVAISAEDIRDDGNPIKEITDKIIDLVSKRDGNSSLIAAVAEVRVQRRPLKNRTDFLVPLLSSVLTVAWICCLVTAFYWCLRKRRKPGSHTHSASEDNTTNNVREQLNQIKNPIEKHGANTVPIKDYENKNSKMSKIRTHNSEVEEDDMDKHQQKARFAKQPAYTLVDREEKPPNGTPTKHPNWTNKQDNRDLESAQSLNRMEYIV

| Molecule | Blocking of Notch1 binding to cell surface Jagged 1 [1, 4] | Blocking of Notch1 binding to cell surface Jagged 1 [1, 5] | Blocking of Notch1 binding to cell surface Jagged 1 [1, 6] | Blocking of Notch1 binding to cell surface Jagged 1 [1, 7] | inhibition of J1-induced luciferase activity [2] | % soluble aggregate [3] | spheroid growth inhibition (MDA-MB-231 spheroids) |
| --- | --- | --- | --- | --- | --- | --- | --- |
| J1-65D variant 5: humanised/de-immunised J1-65D: J1-65D_VL_2 + J1-65D_VH_1 (antibody, V domains shown) VH: QVQLVQSGAELKKPGSSVKVSCKASGYTFTDYEMHWVRQAPGQGLEWMGAIQPGGGGTAYNQKFKGRVTLTADKSTSTAYMELSSLRSEDTAVYYCTRRGYDDYPFAYWGQGTLVTVSSASTKGP VL: DIQMTQSPSSLSASVGDRVTITCRASGNIHNYLAWYQQKPGKAPKLLIYNAKTLADAVPSRFSGSGSGTDYTLTISSLQPEDFATYYCQHFWSAPWTFGGGTKLEIKRT | X | + (Complete blocking) | + (Complete blocking) | + (Complete blocking) | inhibited as effectively as by the parental murine mAb | 0% | most comparable to the parental mAb |
| J1-65D variant 8: humanised/de-immunised J1-65D: J1-65D_VL_2 + J1-65D_VH_4 (antibody, V domains shown) VH: QVQLVQSGAEVKKPGSSVKVSCKASGYTFTDYEMHWVRQAPGQGLEWMGAIQPGGGGTAYAQKFQGRVTITADKSTSTAYMELSSLRSEDTAVYYCTRRGYDDYPFAYWGQGTLVTVSSASTKGP VL: DIQMTQSPSSLSASVGDRVTITCRASGNIHNYLAWYQQKPGKAPKLLIYNAKTLADAVPSRFSGSGSGTDYTLTISSLQPEDFATYYCQHFWSAPWTFGGGTKLEIKRT | X | + (Complete blocking) | + (Complete blocking) | + (Complete blocking) | inhibited as effectively as by the parental murine mAb | 0% | slightly reduced ability to inhibit spheroid growth |
| J1-65D variant 12: humanised/de-immunised J1-65D: J1-65D_VL_3 + J1-65D_VH_4 (antibody, V domains shown) VH: QVQLVQSGAEVKKPGSSVKVSCKASGYTFTDYEMHWVRQAPGQGLEWMGAIQPGGGGTAYAQKFQGRVTITADKSTSTAYMELSSLRSEDTAVYYCTRRGYDDYPFAYWGQGTLVTVSSASTKGP VL: DIQMTQSPSSLSASVGDRVTITCRASGNIHNYLAWYQQKPGKAPKLLIYNAKTLADAVPSRFSGSGSGTDYTLTISSLQPEDFATYYCQHFWSAPWTFGQGTKLEIKRT | X | + (Complete blocking) | + (Complete blocking) | + (Complete blocking) | inhibited as effectively as by the parental murine mAb | 0.47% | slightly reduced ability to inhibit spheroid growth |
| J1-65D variant 9: humanised/de-immunised J1-65D: J1-65D_VL_3 + J1-65D_VH_1 (antibody, V domains shown) VH: QVQLVQSGAELKKPGSSVKVSCKASGYTFTDYEMHWVRQAPGQGLEWMGAIQPGGGGTAYNQKFKGRVTLTADKSTSTAYMELSSLRSEDTAVYYCTRRGYDDYPFAYWGQGTLVTVSSASTKGP VL: DIQMTQSPSSLSASVGDRVTITCRASGNIHNYLAWYQQKPGKAPKLLIYNAKTLADAVPSRFSGSGSGTDYTLTISSLQPEDFATYYCQHFWSAPWTFGQGTKLEIKRT | X | + (Complete blocking) | + (Complete blocking) | + (Complete blocking) | inhibited as effectively as by the parental murine mAb | 0% | most comparable to the parental mAb |

Source: patent publication US9725518B2, “Antibodies that bind to Jagged 1” (Cancer Research Technology Limited, priority 2013, dated 2017)
